*1 amine or outer side, *2 acyl side, *3 side chain or, on linkers, in order; H or OH if unused. Bridges are numbered along the chain shown (N, C = ends). Where no end group is shown, it is not given here. [ ]: non-standard residue; d: D form. dStyrA = (R)-styryl-alanine, (D)-StyrA, O=C([C@@H](C/C=C/c1ccccc1)N[*:1])[*:2]; S6H = (2S)-2-aminooct-7-enoic acid, C=CCCCC[C@H](N[*:1])C(=O)[*:2]; S7H3 = (2S)-2-aminononanoic acid, CCCCCCC[C@H](N[*:1])C(=O)[*:2]; Leu(5,5,5,5',5',5'-F6) = N[C@@H](CC(C(F)(F)F)C(F)(F)F)C(=O)O; dNle(6-ylidene) = O=C([C@@H](CCCC=[*:3])N[*:1])[*:2]; Ala(E-styryl) = N[C@@H](C/C=C/c1ccccc1)C(=O)O; Gly(oct-7-en-1-yl) = C=CCCCCCC[C@H](N)C(=O)O; dGly(6-heptenyl) = C=CCCCCC[C@@H](N)C(=O)O; Ala(5-hexenyl) = C=CCCCCC[C@H](N)C(=O)O; Gla = N[C@@H](CC(C(=O)O)C(=O)O)C(=O)O; S8H3 = not defined here; R5H = not defined here; Aib = CC(C)(N)C(=O)O
target: ATP-binding cassette transporter A1 (ABCA1) (mouse, UniProt P41233 1-2261); assay: cell-based or functional assay
Sequence (P41233 whole entry): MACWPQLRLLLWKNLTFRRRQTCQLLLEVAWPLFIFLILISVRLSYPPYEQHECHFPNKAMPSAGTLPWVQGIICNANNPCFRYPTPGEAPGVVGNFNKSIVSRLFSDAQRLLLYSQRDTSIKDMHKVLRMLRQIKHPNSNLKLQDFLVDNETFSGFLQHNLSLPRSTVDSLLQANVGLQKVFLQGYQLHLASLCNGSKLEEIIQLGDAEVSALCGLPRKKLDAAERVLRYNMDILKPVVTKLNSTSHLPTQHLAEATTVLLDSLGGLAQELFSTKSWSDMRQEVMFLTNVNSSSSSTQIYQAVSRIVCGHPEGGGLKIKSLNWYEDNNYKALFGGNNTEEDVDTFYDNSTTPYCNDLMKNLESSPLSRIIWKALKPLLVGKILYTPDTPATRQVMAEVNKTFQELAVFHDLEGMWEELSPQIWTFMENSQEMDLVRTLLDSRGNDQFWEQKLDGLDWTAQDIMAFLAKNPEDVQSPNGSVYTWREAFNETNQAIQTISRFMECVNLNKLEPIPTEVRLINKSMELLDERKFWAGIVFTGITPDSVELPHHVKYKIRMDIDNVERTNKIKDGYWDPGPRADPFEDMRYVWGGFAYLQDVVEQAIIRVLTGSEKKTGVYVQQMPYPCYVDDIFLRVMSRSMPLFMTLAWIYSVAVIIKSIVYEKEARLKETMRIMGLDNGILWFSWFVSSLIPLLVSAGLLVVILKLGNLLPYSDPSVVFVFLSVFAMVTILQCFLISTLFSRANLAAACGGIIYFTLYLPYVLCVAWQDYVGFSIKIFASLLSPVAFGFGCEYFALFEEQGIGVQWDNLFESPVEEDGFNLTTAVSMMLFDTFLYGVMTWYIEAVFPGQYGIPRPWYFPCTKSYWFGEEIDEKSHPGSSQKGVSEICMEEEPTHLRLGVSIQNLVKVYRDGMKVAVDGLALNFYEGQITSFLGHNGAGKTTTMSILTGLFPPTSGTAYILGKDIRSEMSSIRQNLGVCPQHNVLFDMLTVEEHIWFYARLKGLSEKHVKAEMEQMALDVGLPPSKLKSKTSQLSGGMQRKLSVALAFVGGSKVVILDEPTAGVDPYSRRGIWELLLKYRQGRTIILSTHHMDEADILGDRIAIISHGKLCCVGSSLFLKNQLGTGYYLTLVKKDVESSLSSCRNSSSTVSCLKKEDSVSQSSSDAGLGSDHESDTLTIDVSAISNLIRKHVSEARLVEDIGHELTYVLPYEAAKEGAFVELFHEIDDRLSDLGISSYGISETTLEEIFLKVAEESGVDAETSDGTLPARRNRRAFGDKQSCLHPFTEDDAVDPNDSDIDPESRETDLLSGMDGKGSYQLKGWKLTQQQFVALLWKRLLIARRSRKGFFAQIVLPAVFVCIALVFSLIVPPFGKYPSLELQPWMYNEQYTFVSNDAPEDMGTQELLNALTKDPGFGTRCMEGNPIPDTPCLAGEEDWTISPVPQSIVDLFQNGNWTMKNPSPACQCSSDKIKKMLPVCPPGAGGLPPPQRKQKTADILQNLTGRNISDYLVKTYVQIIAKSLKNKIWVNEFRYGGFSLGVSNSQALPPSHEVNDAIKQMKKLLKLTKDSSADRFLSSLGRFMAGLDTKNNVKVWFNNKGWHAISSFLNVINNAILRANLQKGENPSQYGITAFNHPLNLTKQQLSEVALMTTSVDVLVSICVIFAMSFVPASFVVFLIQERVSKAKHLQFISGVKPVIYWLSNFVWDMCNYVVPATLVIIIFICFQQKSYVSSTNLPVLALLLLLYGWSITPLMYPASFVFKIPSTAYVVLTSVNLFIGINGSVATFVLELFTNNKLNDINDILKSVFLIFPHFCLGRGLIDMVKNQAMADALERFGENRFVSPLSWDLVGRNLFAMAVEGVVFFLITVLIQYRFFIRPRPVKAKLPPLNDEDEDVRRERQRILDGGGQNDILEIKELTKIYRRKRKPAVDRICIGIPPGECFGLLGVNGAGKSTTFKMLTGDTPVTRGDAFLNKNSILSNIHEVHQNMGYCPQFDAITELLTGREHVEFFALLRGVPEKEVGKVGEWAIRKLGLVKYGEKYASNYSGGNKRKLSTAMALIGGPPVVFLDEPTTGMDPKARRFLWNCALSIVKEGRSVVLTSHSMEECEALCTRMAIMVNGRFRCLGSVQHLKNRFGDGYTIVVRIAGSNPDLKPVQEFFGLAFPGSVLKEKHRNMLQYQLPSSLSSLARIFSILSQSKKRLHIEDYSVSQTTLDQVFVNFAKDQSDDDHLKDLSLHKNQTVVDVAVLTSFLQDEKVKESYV

Binder	ABCA1-dependent cholesterol efflux EC50 [nM]	ABCA1-dependent cholesterol efflux, % at 100 uM [%]	ABCA1-dependent cholesterol efflux, % at 30 uM [%]
Ac-PVLDEFR[Gla]KLNE[Ala(5-hexenyl)]LEALKQKLK (not fully specified (C-terminus)) [CONS[GLA^8, S7H^13]]	900		
Ac-PVLDEFREKLNEELEALKQ[S6H]LK (not fully specified (C-terminus); printed as PVLDEFREKLNEELEALKQS6HLK) [CONS[S6H^20]]	236000		
Ac-P[Ala(5-hexenyl)]LDEFREKLNE[Ala(5-hexenyl)]LEALKQKLK [CONS[S7H^2,13]]	300		
Ac-PVLDEFREKLNE[Aib]LEALKQKLK (not fully specified (C-terminus)) [AIB13]		6	
Ac-PVLEEFREKLQE[S8H3]LEALKQKLK (not fully specified (C-terminus); printed as PVLEEFREKLQES8H3LEALKQKLK; reading uncertain; also: calls X13 alkenyl side chain-substituted amino acid) [CONS[E^4, Q^11, S8H3^13,]]	200		
Ac-PVLDEFREKLNE[R5H]LEA[R5H]KQKLK (staple 13-17; reading uncertain) [R5H [E13-L17]R5H CLOSED RING]			< 2
Ac-PVLDEFREKLNE[Ala(5-hexenyl)]LEALKQ[Ala(5-hexenyl)]LK [CONS[S7H^13,20]]	600		
Ac-PVLEEFREKLQE[Gly(oct-7-en-1-yl)]LEALKQKLK (not fully specified (C-terminus)) [CONS[E^4, Q^11, S8H^13]]	300		
Ac-PVLDE[dGly(6-heptenyl)]REKLNE[Ala(5-hexenyl)]LEALKQ[Ala(5-hexenyl)]LK (not fully specified (C-terminus); printed as PVLDER7HREKLNES7HLEALKQS7HLK) [CONS[R7H^6, S7H^13,20]]	100		
Ac-P[Ala(5-hexenyl)]LDE[Ala(5-hexenyl)]REKLNE[Ala(5-hexenyl)]LEALKQKLK [CONS[S7H^2,6,13]]	100		
Ac-P[dGly(6-heptenyl)]LDEFREKLNEELEALKQKLK (not fully specified (C-terminus)) [CONS[R7H^2]]		6.3	
PXLDEFREKLNEXLXALKQXLK (not fully specified; N-terminal acetyl (Ac-Pro); S7H at 2, 13 and 20; Gla at 15) [CONS[GLA^15, S7H^2,13,20]]	7700		
Ac-PVLDEFREKLNE[Ala(5-hexenyl)]L[Gla]ALKQKLK [CONS[S7H^13, GLA^15]]	700		
Ac-PVLDEFREKLNE[S6H]LEALKQKLK (not fully specified (C-terminus)) [CONS[S6H^13]]	1400		
Ac-PVLDEFREKLNE[Aib]L[Gla]ALKQKLK (not fully specified (C-terminus)) [GLA15/AIB13]	41000		
Ac-PVLDEFREKLNE[dStyrA]LEALKQKLK (not fully specified (C-terminus)) [CONS[(R)STYRA^13]]	22000		
Ac-PVLEE[Ala(5-hexenyl)]REKLQE[Ala(5-hexenyl)]LEALKQKLK (not fully specified (C-terminus)) [CONS[E^4, S7H^6,13, Q^11]]	700		
Ac-PVLDEFREK[Ala(5-hexenyl)]NEELEALKQKLK [CONS[S7H^10]]		1.4	
Ac-PVLDE[Ala(5-hexenyl)]REKLNEELEALKQKLK [CONS[S7H^6]]		4	
Ac-PVLDE[S8H3]REKLNE[S8H3]LEALKQKLK (reading uncertain) [CONS[S8H3^6,13]]	600		
Ac-PVLDEFREKLNE[Leu(5,5,5,5',5',5'-F6)]LEALKQKLK (not fully specified (C-terminus)) [CONS[HF-LEU^,13]]	1100		
Ac-PVLDEFREKLNEAL[Gla]ALKQKLK (not fully specified (C-terminus)) [GLA15/ALA13]	234000		

Binder	ABCA1-dependent cholesterol efflux EC50 [nM]	ABCA1-dependent cholesterol efflux, % at 100 uM [%]	ABCA1-dependent cholesterol efflux, % at 30 uM [%]
Ac-PVLDE[Ala(5-hexenyl)]REKLNE[Ala(5-hexenyl)]LEALKQ[Ala(5-hexenyl)]LK [CONS[S7H^6,13,20]]	200		
Ac-PVLDE[S7H3]REKLNE[S7H3]LEALKQKLK (not fully specified (C-terminus); printed as PVLDES7H3REKLNES7H3LEALKQKLK) [CONS[S7H3^6,13]]	300		
Ac-PVLDE[Ala(E-styryl)]REKLNE[Ala(5-hexenyl)]LEALKQKLK [CON[(S)STYRA^6, S7H^13]]	200		
Ac-PVLDEFREKLNE[dNle(6-ylidene)]LEALKQKLK (not fully specified (C-terminus)) [CONS[R5H^13]]		6.2	
PVLDEXREKLNEXLXALKQXLK (not fully specified; N-terminal acetyl (Ac-Pro); S7H at 6, 13 and 20; Gla at 15) [CONS[GLA^15, S7H^6,13,20]]	500		
Ac-PVLDEFREKLNE[Ala(E-styryl)]LEALKQKLK (not fully specified (C-terminus)) [CONS[(S)STYRA^13]]	1000		
Ac-P[S6H]LDEFREKLNEELEALKQKLK (not fully specified (C-terminus)) [CONS[S6H^2]]		1	
Ac-PVLDEFRE[Ala(5-hexenyl)]LNEELEALKQKLK [CONS[S7H^9]]		1.4	
Ac-PVLDEFREKLNE[Gly(oct-7-en-1-yl)]LEALKQKLK [CONS[S8H^13]]	600		
Ac-PVLDEFREKLNE[dGly(6-heptenyl)]LEALKQKLK (not fully specified (C-terminus)) [CONS[R7H^13]]	7200		
Ac-PVLDEFRE[R5H]LNE[R5H]LEALKQKLK (staple 9-13; reading uncertain) [R5H [K9-E13]R5H CLOSED RING]	10000		
Ac-P[Ala(5-hexenyl)]LDEFREKLNE[Ala(5-hexenyl)]LEALKQ[Ala(5-hexenyl)]LK [CONS[S7H^2,13,20]]	3200		
Ac-PVLDEFR[Gla]KLNE[Aib]LEALKQKLK (not fully specified (C-terminus)) [GLA8/AIB13]	44000		
Ac-PVLDEFREKLNEELEA[Ala(5-hexenyl)]KQKLK [CONS[S7H^17]]		1	
Ac-PVLDEFREKLNE[S7H3]LEALKQKLK (not fully specified (C-terminus); printed as PVLDEFREKLNES7H3LEALKQKLK) [CONS[S7H3^13]]	600		
Ac-PVLDEFKEKLNE[Ala(5-hexenyl)]LEALKQKLK (not fully specified (C-terminus)) [CONS[K^7, S7H^13]]	1300		
Ac-PVLDE[Gly(oct-7-en-1-yl)]REKLNE[Gly(oct-7-en-1-yl)]LEALKQKLK [CONS[S8H^6,13]]	400		
Ac-P[Ala(5-hexenyl)]LDE[dGly(6-heptenyl)]REKLNE[Ala(5-hexenyl)]LEALKQKLK (not fully specified (C-terminus)) [CONS[R7H^6, S7H^2,13]]	200		
Ac-PVLDEFREKLNE[S8H3]LEALKQKLK (reading uncertain) [CONS[S8H3^13]]	300		
Ac-PVLDE[Ala(5-hexenyl)]REKLNE[Ala(5-hexenyl)]LEALKQKLK [CONS[S7H^6,13]]	300		
Ac-PVLDEFR[Gla]KLNEALEALKQKLK (not fully specified (C-terminus)) [GLA8/ALA13]	142000		
Ac-PVLDEFREKLNEELEALKQ[dGly(6-heptenyl)]LK (not fully specified (C-terminus); printed as PVLDEFREKLNEELEALKQR7HLK) [CONS[R7H^20]]		1.4	

Reference: US20110046056A1, “APOA-1 PEPTIDE MIMETICS” (priority 2007, published 2011)
